Reference: US12636342B2, “TARS derived from Akkermansia muciniphila or fragment thereof, and use thereof” (KOREA RESEARCH INSTITUTE OF BIOSCIENCE AND BIOTECHNOLOGY, priority 2020, dated 2026)
“Also recorded” adds a separate entry of the source.

Columns and labels:
[1] = test system: mouse bone marrow-derived macrophages (BMDMs); test: ELISA of immune cytokine secretion in BMDMs under normal conditions; assay type: cell-based; details: normal (non-inflammatory) conditions, 24 h
Method in brief: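 Mouse BMDMs from femur and tibia were cultured in DMEM with 10% FBS. Cells were treated with AmTARS at 0.1, 0.2 or 0.5 μM for 24 h. Cell-free supernatants were assayed by ELISA for mouse IL-6, IL-10 and TNF-α.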

[2] = test system: mouse bone marrow-derived macrophages (BMDMs); test: ELISA of immune cytokine secretion in LPS-treated BMDMs (inflammatory environment); assay type: cell-based; details: LPS-induced inflammatory environment, 24 h
Method: To determine whether AmTARS affects immune cytokine secretion when cellular inflammation was induced, mouse bone marrow-derived macrophages BMDMs as mouse-derived immune cells and human macrophages THP1 as human-derived immune cells were cultured by way of the same method as in Example 2.
Specifically, the cultured BMDMs and THP1 were treated with lipopolysaccharide (LPS) to induce an inflammatory response and were simultaneously treated with AmTARS at 0.1 μM, 0.2 μM, and 0.5 μM for 24 h to obtain cell cultures. The obtained cell cultures were analyzed for immune cytokine secretion by way of the same method as in Example 2.
Next, BMDMs were treated with LPS to create an inflammatory environment by way of the same method as in Example 3, and then treated with each TARS (AmTARS, BfTARS, eTARS, and hTARS) to investigate the secretion of IL-10.
An inflammatory environment was created through LPS in BMDMs by way of the same method as in Example 3, and then the cells were treated with the four types of fragments, and the immune cytokine secretion was determined by ELISA.

[3] = test system: mouse macrophage Raw264.7; test: Phosphorylation of signal transducers in LPS-treated Raw264.7; assay type: cell-based; details: Raw264.7, LPS, 0.5 to 3 hours
Method: To determine which signaling pathway was involved in the anti-inflammatory effect by the immune cytokine secretion regulation of […], an inflammatory environment was created through LPS treatment on mouse macrophage Raw264.7 as mouse-derived immune cells, and then changes in phosphorylation of signal transducers involved in the regulation of immune cytokine secretion according to the presence or absence of […] treatment and the elapsed time (0.5 to 3 hours) were investigated. Raw264.7 cells were cultured in DMEM (Hyclone) containing 10% FBS and antibiotics.

[4] = test system: macrophages (F4/80+); test: Identification of cells targeted by injected AmTARS (flow cytometry of PECs, colon immunofluorescence); assay type: in vivo, mouse; details: Mac2 immunofluorescence, His-tagged AmTARS 0.2 mg kg-1, 1 day
Method: To identify the cells targeted by AmTARS, mice with injected i.p. with fluorescently labeled AmTARS, and fluorescence-positive cells in peritoneal exudate cells (PECs), were analyzed by flow cytometry. […] Next, we used a Mac-2 immunofluorescence antibody to test whether i.p.-injected AmTARS targets intestinal macrophages. Intense expression of Mac2 was detected in colonic epithelium, as well as in macrophages located in the lamina propria.

[5] = test system: macrophage-depleted colitis mice; test: DSS-induced colitis in macrophage-depleted (Clodrosome) mice; assay type: in vivo, mouse
Method: To further validate the macrophage-dependent function of AmTARS in improving colitis, we investigated the anti-inflammatory effects of AmTARS in macrophage-depleted colitis mice.
A macrophage-deficient mice were prepared by administration of Clodrosome (administered at a concentration of 200 μL/animal to the abdominal cavity of mice a total of three times on Days 1, 5, and 8), and then the anti-inflammatory efficacy experiment was conducted by way of the same method as in Example 5. Normal mice injected with Encapsome were used as a control.

[6] = test system: B cell-deficient μMut mice; test: DSS-induced inflammatory bowel disease in B cell-deficient μMut mice; assay type: in vivo, mouse
Method: To determine whether the inflammatory bowel disease alleviation effect induced through the secretion of IL-10 cytokine by AmTARS corresponded to a B cell-mediated effect, DSS was administered to B cell-deficient μMut mice (μ heavy chain mutation mice, B cell depletion mice) by way of the same method as in Example 5 to induce inflammatory bowel disease, and AmTARS was administered.

[7] = Aminoacylation reaction (malachite green phosphate assay); assay type: biochemical; details: L-threonine, ATP, 30 min, free Pi at 620 nm
Method: TARS is an […] involved in protein synthesis, and the domain and site involved in its function are well known. The constructed deletion mutants were confirmed to have deletions of parts irrelevant to the function, but the aminoacylation reaction experiment was conducted to determine whether the deletion mutants performed the intrinsic functions thereof appropriately.
Specifically, a 2× reaction solution (100 mM Tris-HCl (pH 7.5), 20 mM MgCl2, 200 mM NaCl, 200 mM KCl, 2 mM DTT, 500 μM ATP, and 5 mM L-threonine) was prepared, and 25 μL of a reaction solution, 20 μL of distilled water, and 5 μL of protein were added to make a final 50 μL volume, followed by incubation for 30 min. Thereafter, a reaction was conducted using a malachite green phosphate assay kit (Bioassay Systems) for 30 min, and the free monophosphate group (Pi) was measured at a wavelength of 620 nm.

[8] = test system: Raw 264.7 cells; test: ELISA of immune cytokine secretion in LPS-treated Raw 264.7 cells; assay type: cell-based, mouse; details: Raw 264.7, LPS, 24 h
Method: Next, to determine whether the regulation of immune cytokine secretion by AmTARS in an inflammatory environment was induced by the two functional sites, the mouse-derived immune cell Raw 264.7 cells were treated with LPS to induce an immune response by the method as in Example 3, and treated with AmTARS, ΔU1AmTARS, and ΔU2AmTARS for 24 h separately to obtain cell cultures. The obtained cell cultures were analyzed for Immune cytokine secretion by way of the same method as in Example 2.

[9] = test system: inflammatory bowel disease mouse model; test: DSS-induced inflammatory bowel disease mouse model, intramuscular injection; assay type: in vivo
From the text: Further, AmTARS was intramuscularly injected into the mouse model to confirm the anti-inflammatory efficacy thereof.

[10] = intramuscularly injected at 0.4 mg/kg or more

B1: Akkermansia muciniphila-derived threonyl-tRNA synthetase (TARS) (protein)
chain: MSEHKERKTLEERQQMSDLERLRHSCAHVLATAICRLWPDAQLAGGPAVDNGFYYDVELDHRISTEDFERIEEEMKKVVKENQVFQKEVISRADAMKMAESGELGALGPRSEPSRFKIDLLNDIPEDEEISLYRNGDFTDLCAGPHVGRTGNCKAFKIMSVASAFYKGDKNRPMLQRIYGTCFPNRTQLDEHLERLEEARRRDHRKLGRELGLFCIDESVGQGLILWKPKGALIRRSLQDFITEELDKLGYSQVYTPNIGKLDLYRTSGHFPYYQESQYAPIPERDAMEKLSQEGASCAELFNGLATGTIEGYMLKPMNCPHHIKIYANDAHSYRDLPVRLAEFGTVYRWEQSGELGGMTRVRGFTQDDAHIFCTPDQLAGEIRQCLGIVKTIFGTLGMTDYRVRLSMRDPESDKYVGSPENWDKAEQALREAAEWLGADYSEEAGEAAFYGPKIDFIVRDAIGREWQLGTVQVDYNLPERFDLHYTGADNKPHRPVMVHRAPFGSMERFTGLLIEHFEGKFPTWLSPEQVRVLPISDKVTDVAAAHRTALAARGVRVTVDETPDKIGAKIRNARLDRVPYMLVLGQREAEDGTVSVRHRDKGDLGAMPFEQFADLVAREIAERHISPVI
modifications: Akkermansia muciniphila TARS
[1]
  secretion/production of IL-6: not secreted; also recorded: no effect
  secretion/production of IL-10: increased in a dose-dependent manner; also recorded: significant increase; also recorded: induced production; also recorded: specific to AmTARS
  secretion/production of TNF-α: not secreted; also recorded: no effect
[2]
  secretion of IL-6: suppressed; also recorded: reduced in a dose-dependent manner
  secretion of IL-10: increased IL-10 levels; also recorded: increased in a dose-dependent manner; also recorded: increased in a protein concentration-dependent manner
  secretion of TNF-α: suppressed; also recorded: reduced in a dose-dependent manner
[3]
  extracellular signal-regulated kinase (ERK): not affected
  phosphorylation of NF-kB: distinctive differences in phosphorylation from a control from 2 h
  phosphorylation of c-Jun N-terminal kinase (JNK): affected through the regulation of phosphorylation from 30 min
  phosphorylation of p38: distinctive differences in phosphorylation from a control from 2 h
[4]
  co-localization of administered AmTARS (His) in the colon: co-localized mainly with macrophages in the lamina propria
[5]
  colitis-induced body weight loss: no effect
  damage score: no effect
  disease activity score: no effect
  disruption of the epithelial lining: no effect
  numbers of IL-10-positive macrophages: did not affect
  numbers of inflammatory monocytes: did not affect
  shortening of the intestine: no effect
[6]
  increase in B cells: could not be shown
[7]
  aminoacylation reaction / enzymatic activity: an aminoacylation reaction was shown
[8]
  secretion of IL-6: reduced in a protein concentration-dependent manner
  secretion of IL-10: increasingly secreted in an AmTARS concentration-dependent manner
  secretion of TNF-α: reduced in a protein concentration-dependent manner
[9]; intramuscular injection
  damage to intestinal epithelial cells: alleviate the damage to intestinal epithelial cells
[9]; [10]
  intestinal length of the mouse model: efficacy of decreasing the weight and intestinal length
  weight of the mouse model: efficacy of decreasing the weight and intestinal length
